Measurements published in patent US20210355205A1 (published 2021).
Numbering of substitutions follows the chain as printed.

Tests used:
recombinant human IL-5 [1] = target: recombinant human IL-5 (human, UniProt P05113 20-134); experiment: Biacore, Ab on Protein A chip
recombinant human IL-5 [2] = target: recombinant human IL-5 (human, UniProt P05113 20-134); experiment: Biacore
Cynomolgus IL-5 = Cynomolgus IL-5 (cynomolgus monkey); experiment: cell-based or functional assay

B1: 3A5.211 (antibody, human IgG4 S228P, lambda, name in Kabat numbering, V domains shown)
VH: QVQLQESGPGLVKPSQTLSLTCTVSGGSISNGGYYWSWIRQHPGKGLEWIGYIYYSGSTYYNPSLKSRVTISVDTSKNQFSLKLSSVTAADTAVYYCASLGNWFDYWGQGTLVTVSS
VL: SYVLTQPPSVSVAPGQTARITCGGNNIGSKNVYWYQQKPGQAPVLVVHDDSDRPSGIPERFSGSNSGNTATLTISRVEVGDEADYSCQAWDSSSDHVVFGGGTKLTVLG
proportional kd vs parent 3A5.040 (recombinant human IL-5 [1]): 1 ratio

B2: 3A5.508 (antibody, human IgG4 S228P, lambda, name in Kabat numbering, V domains shown)
VH: B1 VH with G101A
VL: B1 VL with A89V
proportional kd vs parent 3A5.040 (recombinant human IL-5 [2]): 0.8

B3: 3A5.046 (antibody, human IgG4 S228P, lambda)
heavy: QVQLQESGPGLVKPSQTLSLTCTVSGGSISNGGYYWSWIRQHPGKGLEWIGYIYYSGSTYYNPSLKSRVTISVDTSKNQFSLKLSSVTAADTAVYYCASLGNWFDYWGQGTLVTVSSASTKGPSVFPLAPCSRSTSESTAALGCLVKDYFPEPVTVSWNSGALTSGVHTFPAVLQSSGLYSLSSVVTVPSSSLGTKTYTCNVDHKPSNTKVDKRVESKYGPPCPPCPAPEFLGGPSVFLFPPKPKDTLYITREPEVTCVVVDVSQEDPEVQFNWYVDGVEVHNAKTKPREEQFNSTYRVVSVLTVLHQDWLNGKEYKCKVSNKGLPSSIEKTISKAKGQPREPQVYTLPPSQEEMTKNQVSLTCLVKGFYPSDIAVEWESNGQPENNYKTTPPVLDSDGSFFLYSRLTVDKSRWQEGNVFSCSVMHEALHNHYTQKSLSLSLG
light: SYVLTQPPSVSVAPGQTARITCGGNNIGSKNVYWYQQKPGQAPVLVVHDDSDRPSGIPERFSGSNSGNTATLTISRVEVGDEADYSCQVWDSSSDHVVFGGGTKLTVLGQPKAAPSVTLFPPSSEELQANKATLVCLISDFYPGAVTVAWKADSSPVKAGVETTTPSKQSNNKYAASSYLSLTPEQWKSHRSYSCQVTHEGSTVEKTVAPTECS
Mean (pM): mean IC50, TF-1.6G4 cell line proliferation assay (Cynomolgus IL-5): 43.8 pM
